# Measured values published in article PMC6162332, “A unique intracellular tyrosine in neuroligin-1 regulates AMPA receptor recruitment during synapse differentiation and potentiation” (Nature Communications, 2018).
# Positions count from the first letter of the chain named. Names may count otherwise.
# B1: GST-Nlg1-WT (GST fused to the intracellular domain of neuroligin-1) (domain or fragment, mouse, UniProt Q99K10 719-843, looked up)
# chain: YKKDKRRHDVHRRCSPQRTTTNDLTHAPEEEIMSLQMKHTDLDHECESIHPHEVVLRTACPPDYTLAMRRSPDDIPLMTPNTITMIPNTIPGIQPLHTFNTFTGGQNNTLPHPHPHPHSHSTTRV
# notes: neuroligin-1 (Nlg1), mouse, cytoplasmic tail amplified from HA-Nlg1 (with splice inserts A and B) and inserted in pGex-4T1 at XhoI/NotI; source: E. coli BL21 (DE3)-RIPL, purified (Glutathione Sepharose 4 Fast Flow, dialysed against PBS)
# B2: GST-Nlg1-Y782A (domain or fragment, mouse, UniProt Q99K10 719-843, looked up)
# chain: B1 chain with Y64A
# notes: neuroligin-1 (Nlg1), mouse, cytoplasmic tail amplified from HA-Nlg1-Y782A and inserted in pGex-4T1 at XhoI/NotI; Same limits as m1 (same primers); source: E. coli BL21 (DE3)-RIPL, purified (Glutathione Sepharose 4 Fast Flow, dialysed against PBS)
# B3: GST-Nlg1-Y782F (domain or fragment, mouse, UniProt Q99K10 719-843, looked up)
# chain: B1 chain with Y64F
# notes: neuroligin-1 (Nlg1), mouse, cytoplasmic tail amplified from HA-Nlg1-Y782F and inserted in pGex-4T1 at XhoI/NotI; Same limits as m1 (same primers); source: E. coli BL21 (DE3)-RIPL, purified (Glutathione Sepharose 4 Fast Flow, dialysed against PBS)
# Target: T1, PSD-95-mCherry (rat, UniProt P31016 1-724)
# T1 construct: PSD-95, rat; the rat PSD-95 gene subcloned in frame with an N-terminal mCherry into pET-24a(+) between EcoRI and XhoI; the methods give no limits; source: E. coli BL21-CodonPlus (DE3)-RIPL, purified (Ni-NTA, dialysed into PBS with 0.01% Tween-20); not shown: mCherry, N-terminal, kept
# T1 sequence (P31016 whole entry): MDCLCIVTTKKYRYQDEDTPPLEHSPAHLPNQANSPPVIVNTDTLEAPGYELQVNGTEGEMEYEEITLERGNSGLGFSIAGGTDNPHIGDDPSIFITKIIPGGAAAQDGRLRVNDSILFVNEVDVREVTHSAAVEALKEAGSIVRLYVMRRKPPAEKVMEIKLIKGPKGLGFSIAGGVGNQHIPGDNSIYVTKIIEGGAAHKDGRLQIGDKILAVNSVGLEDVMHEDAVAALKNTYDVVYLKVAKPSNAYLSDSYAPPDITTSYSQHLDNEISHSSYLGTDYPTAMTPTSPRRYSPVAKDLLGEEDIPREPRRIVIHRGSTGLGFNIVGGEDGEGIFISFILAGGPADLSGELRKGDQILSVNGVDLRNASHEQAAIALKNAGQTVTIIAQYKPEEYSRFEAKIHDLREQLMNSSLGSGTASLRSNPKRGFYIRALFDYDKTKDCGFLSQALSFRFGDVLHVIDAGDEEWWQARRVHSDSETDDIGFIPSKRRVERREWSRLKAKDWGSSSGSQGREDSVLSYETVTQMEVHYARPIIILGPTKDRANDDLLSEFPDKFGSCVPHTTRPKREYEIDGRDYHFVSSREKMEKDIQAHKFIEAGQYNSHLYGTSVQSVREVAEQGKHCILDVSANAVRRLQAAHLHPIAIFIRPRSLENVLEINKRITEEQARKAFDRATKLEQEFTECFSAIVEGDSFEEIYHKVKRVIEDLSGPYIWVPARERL
# Test: pull-down; GST or GST-Nlg1 proteins (0.64 nmol/200 µl) on glutathione magnetic beads in PBS pH 7.4, 0.01% BSA, 0.01% Tween-20; incubated 20 min at RT with purified PSD-95-mCherry (0.01 nmol/100 µL); eluted with glutathione; anti-PSD-95 immunoblot
# Conditions: both partners purified
row,Binder,binding result
1,B1,binds
2,B2,binds
3,B3,binds
